Reference: patent US20190359710A1 (FRIEDRICH ALEXANDER UNIVERSIT T ERLANGEN N RNBERG, published 2019)

Legend:
human CD16 [1] = molecular target: T1, human CD16 (human, UniProt P08637 17-254); assay: cytofluorimetry on CHO cells stably transfected with CD16
T1 construct: whole, on cells; also called hu CD16; CHO16-10 CD16+

human CD16 [2] = molecular target: T1, human CD16; assay: affinity for CD16, method not named in the table (antigen on mammalian cells by the text)
[3] = molecular target: T2, human CD123 (alpha chain of the interleukin-3 receptor) (human, UniProt P26951 19-378); assay: affinity for CD123, method not named in the table (antigen on mammalian cells by the text)
T2 construct: also called 239 CD123+; HEK293.123

human CD33 [4] = molecular target: T3, human CD33 (human, UniProt P20138 18-364); assay: affinity for CD33, method not named in the table (antigen on mammalian cells by the text)
T3 construct: whole, on cells; also called U937 CD33+

[5] = molecular target: T2, human CD123 (alpha chain of the …); assay: calibrated flow cytometry on CD123-transfected HEK293 cells
Protocol: (§1) The remaining triplebodies (a), (b), (d) and (f) from the above list were further analyzed. Equilibrium binding constants (KD) of each of the component scFvs carried in these triplebodies were determined by calibrated flow cytometry (Table 5). Thermo-stability in human serum was evaluated by incubation in human serum at 37° C. in vitro, and the binding ability to CD33, CD16 and CD123 on antigen single-positive mammalian cells was measured by FACS-analysis. Residual binding capacity (in % of the starting value) was evaluated after incubation for various lengths of time (Table 5).
(§2) In the top 2 rows the variant humanized according to AHo was used, in the bottom 2 rows the variant humanized according to RK was used. U937 cells are single-positive for CD33; CHO16-10 cells are single-positive (stably transfected) variants for hu CD16; […] are a stably transfected variant of HEK293, single-positive for CD123; MOLM13 cells are a stable, human AML-derived cell line double-positive for CD123 and CD33. n = number of independent experiments performed. Numbers in the table are arithmetic means from n separate measurements ± the Standard Error of the Mean (SEM).

human CD33 [6] = molecular target: T3, human CD33; assay: calibrated flow cytometry on U937 cells (CD33 single-positive)
Protocol: as §1, §2

human CD16 [7] = molecular target: T1, human CD16; assay: calibrated flow cytometry on CHO16-10 cells (CD16 single-positive)
Protocol: as §1, §2

T2 sequence (P26951 19-378 limits assumed): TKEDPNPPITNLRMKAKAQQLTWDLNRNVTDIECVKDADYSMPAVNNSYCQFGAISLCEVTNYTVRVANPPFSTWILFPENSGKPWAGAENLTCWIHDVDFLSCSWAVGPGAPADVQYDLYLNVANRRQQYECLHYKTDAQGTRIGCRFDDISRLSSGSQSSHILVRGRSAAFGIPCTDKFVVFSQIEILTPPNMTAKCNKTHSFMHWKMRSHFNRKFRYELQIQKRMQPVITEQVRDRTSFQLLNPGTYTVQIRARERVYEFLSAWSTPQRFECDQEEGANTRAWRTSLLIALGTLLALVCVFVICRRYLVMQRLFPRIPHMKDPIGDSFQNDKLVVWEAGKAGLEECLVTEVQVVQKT
T1 sequence (P08637 17-254): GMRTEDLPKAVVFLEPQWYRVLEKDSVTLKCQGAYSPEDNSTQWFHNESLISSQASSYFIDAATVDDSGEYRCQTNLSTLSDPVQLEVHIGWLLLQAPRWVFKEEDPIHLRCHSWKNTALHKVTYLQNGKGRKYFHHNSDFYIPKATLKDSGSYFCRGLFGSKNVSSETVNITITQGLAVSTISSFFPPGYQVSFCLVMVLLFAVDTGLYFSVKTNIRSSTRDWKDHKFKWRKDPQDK
T3 sequence (P20138 18-364): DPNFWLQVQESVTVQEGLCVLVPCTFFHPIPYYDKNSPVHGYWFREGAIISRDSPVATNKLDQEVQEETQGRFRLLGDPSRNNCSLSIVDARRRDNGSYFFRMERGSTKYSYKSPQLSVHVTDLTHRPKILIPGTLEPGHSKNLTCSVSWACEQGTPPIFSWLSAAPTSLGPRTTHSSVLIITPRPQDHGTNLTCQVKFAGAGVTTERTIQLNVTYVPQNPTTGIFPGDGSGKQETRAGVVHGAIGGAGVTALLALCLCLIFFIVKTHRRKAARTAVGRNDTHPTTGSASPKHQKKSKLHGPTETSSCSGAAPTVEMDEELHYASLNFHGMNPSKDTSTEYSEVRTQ

Row | Binder | Kd (human CD16 [1]) | Kd (human CD16 [2]) | Kd [3] | Kd (human CD33 [4]) | Kd [5] | Kd (human CD33 [6]) | Kd (human CD16 [7])
1 | humanized CD16-specific scFv variant 1/3 (Vk1 / VH3 frameworks, LH order, (Gly4Ser)4x linker) (scFv) DIVLTQSPSSLSASVGDRVTITCKASQSVDFDGDSFMNWYQQKPGKAPKLLIYTTSNLESGVPSRFSASGSGTDFTLTISSLQPEDFATYYCQQSNEDPYTFGQGTKVEIKRGGGGSGGGGSGGGGSGGGGSEVQLVESGGGDVQPGGSLRLSCAFSGFSLRTSGMGVGWIRQAPGKGLEWVAHIWWDDDKRYNPSVKGRFTISKDTSSNTVYLQMNSLRAEDTAVYYCAQINPAWFAYWGQGTLVTVSS | 12.7 nM |  |  |  |  |  | 
2 | single chain triplebody SPM-2, hu(33-ds16-ds123RK) (other, Trispecific single-chain triplebody made of three scFvs in tandem, produced in HEK293 F cells; also called 33-ds16-ds123 (SPM-2)) EVQLVESGGGLIQPGGSLRLSCAASGFPLTSYGVSWVRQPPGKGLEWLGVIWGDGSTNYHSALISRFTISRDNSKNTLYLQMNSLRAEDTAVYYCARDTYYPYYAMDYWGQGTTVTVSSGGGGSGGGGSGGGGSDIQMTQSPSSLSASVGDRVTITCKASQDVSTAVAWYQQKPGKAPKLLIYSASYRYTGVPSRFSGSGSGTDFTLTISSLQPEDFATYYCQQHYSTPLTFGQGTKLEIKRGGGGSGGGGSGGGGSGGGGSDIVLTQSPSSLSASVGDRVTITCKASQSVDFDGDSFMNWYQQKPGKAPKLLIYTTSNLESGVPSRFSASGSGTDFTLTISSLQPEDFATYYCQQSNEDPYTFGCGTKVEIKRGGGGSGGGGSGGGGSGGGGSEVQLVESGGGDVQPGGSLRLSCAFSGFSLRTSGMGVGWIRQAPGKCLEWVAHIWWDDDKRYNPSVKGRFTISKDTSSNTVYLQMNSLRAEDTAVYYCAQINPAWFAYWGQGTLVTVSSGGGGSGGGGSGGGGSGGGGSEVQLVESGGGLVQPGGSLRLSCAASGFTFTDYYMSWVRQAPGKCLEWLALIRSKADGYTTEYSASVKGRFTISRDDSKNSLYLQMNSLKTEDTAVYYCARDAAYYSYYSPEGAMDYWGQGTSVTVSSGGGGSGGGGSGGGGSDIQMTQSPSSLSASVGDRVTITCKASQNVDSAVAWYQQKPGKAPKALIYSASYRYSGVPSRFSGSGSGTDFTLTISSLQPEDFATYYCQQYYSTPWTFGCGTKVEIKRGGGGSHHHHHH |  | 35 nM | 32 nM | 23 nM |  |  | 
3 | triplebody hu[33-ds16-123] (other) EVQLVESGGGLIQPGGSLRLSCAASGFPLTSYGVSWVRQPPGKGLEWLGVIWGDGSTNYHSALISRFTISRDNSKNTLYLQMNSLRAEDTAVYYCARDTYYPYYAMDYWGQGTTVTVSSGGGGSGGGGSGGGGSDIQMTQSPSSLSASVGDRVTITCKASQDVSTAVAWYQQKPGKAPKLLIYSASYRYTGVPSRFSGSGSGTDFTLTISSLQPEDFATYYCQQHYSTPLTFGQGTKLEIKRGGGGSGGGGSGGGGSGGGGSDIVLTQSPSSLSASVGDRVTITCKASQSVDFDGDSFMNWYQQKPGKAPKLLIYTTSNLESGVPSRFSASGSGTDFTLTISSLQPEDFATYYCQQSNEDPYTFGCGTKVEIKRGGGGSGGGGSGGGGSGGGGSEVQLVESGGGDVQPGGSLRLSCAFSGFSLRTSGMGVGWIRQAPGKCLEWVAHIWWDDDKRYNPSVKGRFTISKDTSSNTVYLQMNSLRAEDTAVYYCAQINPAWFAYWGQGTLVTVSSGGGGSGGGGSGGGGSGGGGSEVQLVESGGGLVQPGGSLRLSCAASGFTFTDYYMSWVRQAPGKGLEWLALIRSKADGYTTEYSASVKGRFTISRDDSKNSLYLQMNSLKTEDTAVYYCARDAAYYSYYSPEGAMDYWGQGTSVTVSSGGGGSGGGGSGGGGSDIQMTQSPSSLSASVGDRVTITCKASQNVDSAVAWYQQKPGKAPKALIYSASYRYSGVPSRFSGSGSGTDFTLTISSLQPEDFATYYCQQYYSTPWTFGQGTKVEIKR |  | 13 nM | 13 nM | 53 nM | 11 nM | 49 nM | 11 nM
4 | candidate triplebody hu[33-ds16-ds123RK] before polishing of the sequence (other, not shown: small tags and cut ends, the list of removed pieces may not be complete; also called variant (f)) EVQLVESGGGLIQPGGSLRLSCAASGFPLTSYGVSWVRQPPGKGLEWLGVIWGDGSTNYHSALISRFTISRDNSKNTLYLQMNSLRAEDTAVYYCARDTYYPYYAMDYWGQGTTVTVSSGGGGSGGGGSGGGGSDIQMTQSPSSLSASVGDRVTITCKASQDVSTAVAWYQQKPGKAPKLLIYSASYRYTGVPSRFSGSGSGTDFTLTISSLQPEDFATYYCQQHYSTPLTFGQGTKLEIKRGGGGSGGGGSGGGGSGGGGSDIVLTQSPSSLSASVGDRVTITCKASQSVDFDGDSFMNWYQQKPGKAPKLLIYTTSNLESGVPSRFSASGSGTDFTLTISSLQPEDFATYYCQQSNEDPYTFGCGTKVEIKRGGGGSGGGGSGGGGSGGGGSEVQLVESGGGDVQPGGSLRLSCAFSGFSLRTSGMGVGWIRQAPGKCLEWVAHIWWDDDKRYNPSVKGRFTISKDTSSNTVYLQMNSLRAEDTAVYYCAQINPAWFAYWGQGTLVTVSSGGGGSGGGGSGGGGSGGGGSEVQLVESGGGLVQPGGSLRLSCAASGFTFTDYYMSWVRQAPGKCLEWLALIRSKADGYTTEYSASVKGRFTISRDDSKNSLYLQMNSLKTEDTAVYYCARDAAYYSYYSPEGAMDYWGQGTSVTVSSGGGGSGGGGSGGGGSDIQMTQSPSSLSASVGDRVTITCKASQNVDSAVAWYQQKPGKAPKALIYSASYRYSGVPSRFSGSGSGTDFTLTISSLQPEDFATYYCQQYYSTPWTFGCGTKVEIKR |  |  |  |  | 9 nM | 31 nM | 18 nM
